{
  "source": "paper PMC6016250",
  "key": {"[1]": {"target": "Toll-like receptor 4 on the surface of RAW 264.7 murine macrophages (mouse (endogenous in RAW 264.7)) (UniProt Q9QUK6)", "sequence (Q9QUK6 26-835)": "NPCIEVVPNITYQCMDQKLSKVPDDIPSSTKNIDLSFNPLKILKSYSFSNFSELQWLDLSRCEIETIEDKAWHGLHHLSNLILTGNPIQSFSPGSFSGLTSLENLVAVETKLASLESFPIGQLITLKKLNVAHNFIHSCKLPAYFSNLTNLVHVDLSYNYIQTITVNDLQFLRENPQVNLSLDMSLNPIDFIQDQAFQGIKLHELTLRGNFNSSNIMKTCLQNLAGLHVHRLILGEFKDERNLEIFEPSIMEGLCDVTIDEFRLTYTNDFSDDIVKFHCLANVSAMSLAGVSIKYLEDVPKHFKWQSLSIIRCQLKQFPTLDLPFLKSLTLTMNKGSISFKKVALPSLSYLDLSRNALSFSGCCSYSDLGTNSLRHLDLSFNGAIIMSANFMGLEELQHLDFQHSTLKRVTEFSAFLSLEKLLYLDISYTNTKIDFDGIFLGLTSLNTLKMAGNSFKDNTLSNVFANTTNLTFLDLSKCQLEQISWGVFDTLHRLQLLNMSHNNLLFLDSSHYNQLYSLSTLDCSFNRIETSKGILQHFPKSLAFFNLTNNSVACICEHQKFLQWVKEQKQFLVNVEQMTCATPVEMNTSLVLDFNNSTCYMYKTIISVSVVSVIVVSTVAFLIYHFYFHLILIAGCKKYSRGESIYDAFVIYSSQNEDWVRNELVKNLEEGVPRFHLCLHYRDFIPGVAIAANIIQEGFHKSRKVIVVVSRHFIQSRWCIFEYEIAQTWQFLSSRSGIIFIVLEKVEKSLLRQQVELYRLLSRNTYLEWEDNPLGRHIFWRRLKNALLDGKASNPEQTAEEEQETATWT"}, "[2]": {"target": "Toll-like receptor 4 on the surface of RAW 264.7 murine macrophages (mouse (endogenous in RAW 264.7)) (UniProt Q9QUK6)", "remark": "listed apart in the source"}, "[3]": {"target": "Toll-like receptor 4 on the surface of RAW 264.7 murine macrophages (mouse (endogenous in RAW 264.7)) (UniProt Q9QUK6)", "remark": "listed apart in the source"}},
  "data": [
    {"substance": "recombinant Rv0297PGRS (PGRS domain of the Mycobacterium tuberculosis PE_PGRS protein Rv0297) (from UniProt Q6MX50 1-591) (domain or fragment)", "values": [
      {"measurement": "mortality of RAW 264.7 macrophages (alamarBlue assay, 48 h) with 2.5, 5, 10, 20 and 40 µg/ml rRv0297PGRS (12.42% to 36.07%); no significant change in RAW-ΔTLR4 cells", "setting": "[1]", "value": 36.1, "unit": "%"},
      {"measurement": "total percentage of apoptotic RAW 264.7 cells (annexin V/PI staining) with 20 and 40 µg/ml rRv0297PGRS (43.83% and 58.37%)", "setting": "[2]", "value": 58.4, "unit": "%"},
      {"measurement": "fold increase of NO (Griess reagent) in RAW 264.7 cells stimulated with 20 µg/ml rRv0297PGRS for 30 h in contrast to unstimulated cells; unchanged in RAW-ΔTLR4 cells", "setting": "[3]", "value": 2, "unit": "fold"},
      {"measurement": "fold increment of ROS (CellROX green) in RAW 264.7 cells stimulated with rRv0297PGRS for 30 h compared to untreated cells (1.53 and 1.80); unchanged in RAW-ΔTLR4 cells", "setting": "[3]", "value": 1.8, "unit": "fold"}
    ]}
  ]
}
